Here are results for 5 molecules from paper PMC7062188, “The crystal structure of human forkhead box N1 in complex with DNA reveals the structural basis for forkhead box family specificity”.

Data set [1] deals with T1, FOXN1 1-614 (human, UniProt O15353 1-614).
T1 sequence: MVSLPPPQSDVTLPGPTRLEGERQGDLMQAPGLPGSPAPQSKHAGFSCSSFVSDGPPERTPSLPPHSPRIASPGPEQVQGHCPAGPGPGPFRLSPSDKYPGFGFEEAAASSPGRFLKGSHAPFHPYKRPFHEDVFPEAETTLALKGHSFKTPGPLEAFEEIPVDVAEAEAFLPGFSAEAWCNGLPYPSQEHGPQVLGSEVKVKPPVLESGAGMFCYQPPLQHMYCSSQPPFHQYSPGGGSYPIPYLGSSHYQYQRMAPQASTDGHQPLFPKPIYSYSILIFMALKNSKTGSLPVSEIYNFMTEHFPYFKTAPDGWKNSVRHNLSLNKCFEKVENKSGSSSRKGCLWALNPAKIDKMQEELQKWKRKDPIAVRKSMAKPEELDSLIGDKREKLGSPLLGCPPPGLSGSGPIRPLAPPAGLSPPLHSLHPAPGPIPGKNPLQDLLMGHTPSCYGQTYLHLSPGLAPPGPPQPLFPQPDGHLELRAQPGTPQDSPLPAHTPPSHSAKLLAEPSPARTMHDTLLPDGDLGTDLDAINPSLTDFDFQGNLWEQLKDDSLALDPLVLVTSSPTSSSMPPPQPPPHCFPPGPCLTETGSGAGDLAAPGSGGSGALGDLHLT
Nature of the data set: EMSA; apparent Kd; EMSA: 50 mM Tris-HCl pH 7.5, 25 mM NaCl, 0.5 mM EDTA, 0.1% Tween 20, 2 mM DTT, 5% glycerol, 30 min room temperature; FP: 10 mM HEPES pH 7.5, 50 mM NaCl, 1 mM TCEP, 10 nM probe. Particulars: protein: recombinant; tags: His tag (pNIC28-Bsa4), cleaved with TEV; label: 32P on forward strand (5', T4 PNK); blunt.

The target of data set [2] is T1, FOXN1 1-614. Nature of the data set: EMSA; apparent Kd; multiple shifted species; EMSA: 50 mM Tris-HCl pH 7.5, 25 mM NaCl, 0.5 mM EDTA, 0.1% Tween 20, 2 mM DTT, 5% glycerol, 30 min room temperature; FP: 10 mM HEPES pH 7.5, 50 mM NaCl, 1 mM TCEP, 10 nM probe. Particulars: protein: recombinant; tags: His tag (pNIC28-Bsa4), cleaved with TEV; label: 32P on forward strand (5', T4 PNK); blunt. (In general: In EMSA bound probe runs differently from free probe, usually more slowly.)

Data set [3] concerns the target T2, FOXN1 forkhead domain (human, UniProt O15353 270-366).
T2 sequence: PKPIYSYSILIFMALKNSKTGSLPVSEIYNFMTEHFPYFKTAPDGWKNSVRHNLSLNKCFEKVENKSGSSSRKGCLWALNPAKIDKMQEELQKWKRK
Nature of the data set: EMSA; no significant binding over the concentration range tested; EMSA: 50 mM Tris-HCl pH 7.5, 25 mM NaCl, 0.5 mM EDTA, 0.1% Tween 20, 2 mM DTT, 5% glycerol, 30 min room temperature; FP: 10 mM HEPES pH 7.5, 50 mM NaCl, 1 mM TCEP, 10 nM probe. Particulars: protein: recombinant; tags: His tag (pNIC28-Bsa4), cleaved with TEV; label: 32P on forward strand (5', T4 PNK); blunt.

Data set [4] concerns the target T1, FOXN1 1-614. Nature of the data set: fluorescence polarization; EMSA: 50 mM Tris-HCl pH 7.5, 25 mM NaCl, 0.5 mM EDTA, 0.1% Tween 20, 2 mM DTT, 5% glycerol, 30 min room temperature; FP: 10 mM HEPES pH 7.5, 50 mM NaCl, 1 mM TCEP, 10 nM probe. Particulars: protein: recombinant; tags: His tag (pNIC28-Bsa4), cleaved with TEV; label: 3' FITC on strand 1; blunt. In general terms: Fluorescence polarisation rises when a labelled molecule tumbles more slowly, as on binding a larger partner.

The target in data set [5] is T2, FOXN1 forkhead domain. Nature of the data set: X-ray crystallography; 1.6 A structure; crystals at pH 4.5; EMSA: 50 mM Tris-HCl pH 7.5, 25 mM NaCl, 0.5 mM EDTA, 0.1% Tween 20, 2 mM DTT, 5% glycerol, 30 min room temperature; FP: 10 mM HEPES pH 7.5, 50 mM NaCl, 1 mM TCEP, 10 nM probe. Particulars: protein: recombinant; tags: His tag (pNIC28-Bsa4), cleaved with TEV; blunt.

B1: tandem FKH EMSA probe (dsDNA)
DNA 1: AGCATAAACAACAGAGCGATAAACCAGG
DNA 2: CCTGGTTTATCGCTCTGTTGTTTATGCT
For B1, the Kd with FOXN1 1-614 [1] was found to be 205 ± 21 nM.

B2: PSMA7 tandem FHL EMSA probe (dsDNA)
DNA 1: GCAGCAGACGCAACAGAGCGAGACGCCAGGG
DNA 2: CCCTGGCGTCTCGCTCTGTTGCGTCTGCTGC
As to B2, the Kd in the data set with FOXN1 1-614 [2] turned out to be 82 ± 8 nM. In addition, the binding result with FOXN1 forkhead domain [3] is on record as “no binding”.

B3: tandem FHL FP probe (dsDNA)
DNA 1: B2 DNA 1
DNA 2: B2 DNA 2
For B3, the Kd with FOXN1 1-614 [4] came to 38 ± 3.3 nM.

B4: Psmb11 FHL 13-mer (dsDNA)
DNA 1: TGAAGACGCCACC
DNA 2: GGTGGCGTCTTCA
For the molecule B4, the binding result in the data set with FOXN1 forkhead domain [5] is reported as “binds”.

B5: tandem FKH FP probe (dsDNA)
DNA 1: GCAGCATAAACAACAGAGCGATAAACCAGGG
DNA 2: CCCTGGTTTATCGCTCTGTTGTTTATGCTGC
Consider B5, for which the Kd with FOXN1 1-614 [4] worked out at 85 ± 11 nM.
